The record followed here is article PMC10786891, “Massively parallel profiling of RNA-targeting CRISPR-Cas13d”.

T1: EsCas13d, nuclease-dead (Eubacterium siraeum, UniProt B0MS50, R295A;H300A;R849A;H854A)
T1 sequence: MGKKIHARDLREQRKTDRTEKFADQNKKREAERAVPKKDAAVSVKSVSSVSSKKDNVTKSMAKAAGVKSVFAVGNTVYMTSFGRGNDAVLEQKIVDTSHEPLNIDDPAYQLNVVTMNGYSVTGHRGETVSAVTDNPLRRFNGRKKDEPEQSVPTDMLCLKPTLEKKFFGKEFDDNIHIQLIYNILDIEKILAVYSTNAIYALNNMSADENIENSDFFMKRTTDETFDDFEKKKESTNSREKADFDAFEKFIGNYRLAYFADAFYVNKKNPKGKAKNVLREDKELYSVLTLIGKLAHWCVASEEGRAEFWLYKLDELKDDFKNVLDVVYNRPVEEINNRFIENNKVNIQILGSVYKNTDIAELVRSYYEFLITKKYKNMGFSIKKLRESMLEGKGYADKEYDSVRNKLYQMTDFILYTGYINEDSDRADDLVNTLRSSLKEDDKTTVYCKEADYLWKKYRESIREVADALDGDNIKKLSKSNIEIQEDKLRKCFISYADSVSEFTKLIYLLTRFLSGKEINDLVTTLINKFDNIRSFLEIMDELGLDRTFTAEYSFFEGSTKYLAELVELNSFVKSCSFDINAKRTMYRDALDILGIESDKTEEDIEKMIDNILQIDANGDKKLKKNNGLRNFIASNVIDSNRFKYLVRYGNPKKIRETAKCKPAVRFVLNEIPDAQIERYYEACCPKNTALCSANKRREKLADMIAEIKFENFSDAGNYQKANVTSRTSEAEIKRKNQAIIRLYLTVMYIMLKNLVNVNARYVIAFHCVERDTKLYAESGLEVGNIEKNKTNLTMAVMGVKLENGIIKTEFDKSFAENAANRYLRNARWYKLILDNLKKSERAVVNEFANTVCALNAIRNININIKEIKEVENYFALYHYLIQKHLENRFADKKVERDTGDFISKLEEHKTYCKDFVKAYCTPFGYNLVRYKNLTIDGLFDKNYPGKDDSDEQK

B1: target 1 insU 3' of 12,insG 3' of 1 (mixed)
RNA 1: CACCCGUGCAAAAAUGCAGGGGUCUAAAACUGAGCGGAUAACCUCUCUAUGG
RNA 2: GGGAAUGGAUCCACAUCUACGAAUUCGUACCAUAGAGAGGUUUAUCCGCUCAGCCGAGAUCGGAAGAGCACACGU
B2: target 1 G5U,C21A (mixed)
RNA 1: B1 RNA 1
RNA 2: GGGAAUGGAUCCACAUCUACGAAUUCGUACAAUAGAGAGGUUAUCCUCUCACCGAGAUCGGAAGAGCACACGU
B3: target 1 insG 3' of 22,insC 3' of 12 (mixed)
RNA 1: B1 RNA 1
RNA 2: GGGAAUGGAUCCACAUCUACGAAUUCGUACGCAUAGAGAGGCUUAUCCGCUCACCGAGAUCGGAAGAGCACACGU
B4: target 2 MT 5'PFS AUA 3'PFS AUA (mixed)
RNA 1: CACCCGUGCAAAAUUGCAGGGGUCUAAAACCUUCUCCAAAUUGUUUCAUCCU
RNA 2: GGGAAUGGAUCCACAUCUACGAAUUCAUAAGGAUGAAACAAUUUGGAGAAGAUAAGAUCGGAAGAGCACACGU
B5: target 2 MT 5'PFS UCA 3'PFS AGA (mixed)
RNA 1: B4 RNA 1
RNA 2: B4 RNA 2 with A27U, U28C, U53G
B6: target 2 MT 5'PFS GUU 3'PFS UCA (mixed)
RNA 1: B4 RNA 1
RNA 2: B4 RNA 2 with A27G, A29U, A52U, U53C
B7: target 2 MT 5'PFS UCA 3'PFS AGG (mixed)
RNA 1: B4 RNA 1
RNA 2: B4 RNA 2 with A27U, U28C, U53G, A54G
B8: target 2 MT 5'PFS CGC 3'PFS UCG (mixed)
RNA 1: B4 RNA 1
RNA 2: B4 RNA 2 with A27C, U28G, A29C, A52U, U53C, A54G
B9: target 2 MT 5'PFS AUA 3'PFS AUC (mixed)
RNA 1: B4 RNA 1
RNA 2: B4 RNA 2 with A54C
B10: target 2 MT 5'PFS GAC 3'PFS AAU (mixed)
RNA 1: B4 RNA 1
RNA 2: B4 RNA 2 with A27G, U28A, A29C, U53A, A54U
B11: target 2 MT 5'PFS GGU 3'PFS ACA (mixed)
RNA 1: B4 RNA 1
RNA 2: B4 RNA 2 with A27G, U28G, A29U, U53C
B12: target 2 MT 5'PFS CUC 3'PFS AAA (mixed)
RNA 1: B4 RNA 1
RNA 2: B4 RNA 2 with A27C, A29C, U53A
B13: target 2 MT 5'PFS ACC 3'PFS CAG (mixed)
RNA 1: B4 RNA 1
RNA 2: B4 RNA 2 with U28C, A29C, A52C, U53A, A54G
B14: target 2 MT 5'PFS UGU 3'PFS UGU (mixed)
RNA 1: B4 RNA 1
RNA 2: B4 RNA 2 with A27U, U28G, A29U, A52U, U53G, A54U
B15: target 2 MT 5'PFS UAU 3'PFS GAA (mixed)
RNA 1: B4 RNA 1
RNA 2: B4 RNA 2 with A27U, U28A, A29U, A52G, U53A
B16: target 2 MT 5'PFS UGG 3'PFS CAG (mixed)
RNA 1: B4 RNA 1
RNA 2: B4 RNA 2 with A27U, U28G, A29G, A52C, U53A, A54G
B17: target 2 MT 5'PFS GUU 3'PFS UCC (mixed)
RNA 1: B4 RNA 1
RNA 2: B4 RNA 2 with A27G, A29U, A52U, U53C, A54C
B18: target 2 MT 5'PFS GUU 3'PFS UCU (mixed)
RNA 1: B4 RNA 1
RNA 2: B4 RNA 2 with A27G, A29U, A52U, U53C, A54U
B19: target 2 MT 5'PFS CGC 3'PFS UCC (mixed)
RNA 1: B4 RNA 1
RNA 2: B4 RNA 2 with A27C, U28G, A29C, A52U, U53C, A54C
B20: target 2 MT 5'PFS CGC 3'PFS UCA (mixed)
RNA 1: B4 RNA 1
RNA 2: B4 RNA 2 with A27C, U28G, A29C, A52U, U53C
B21: target 2 MT 5'PFS GCG 3'PFS AUC (mixed)
RNA 1: B4 RNA 1
RNA 2: B4 RNA 2 with A27G, U28C, A29G, A54C
B22: target 2 MT 5'PFS UGG 3'PFS CAA (mixed)
RNA 1: B4 RNA 1
RNA 2: B4 RNA 2 with A27U, U28G, A29G, A52C, U53A
B23: target 2 MT 5'PFS GCG 3'PFS AUA (mixed)
RNA 1: B4 RNA 1
RNA 2: B4 RNA 2 with A27G, U28C, A29G
B24: target 2 MT 5'PFS AAU 3'PFS UAC (mixed)
RNA 1: B4 RNA 1
RNA 2: B4 RNA 2 with U28A, A29U, A52U, U53A, A54C
B25: target 2 MT 5'PFS GCG 3'PFS AUG (mixed)
RNA 1: B4 RNA 1
RNA 2: B4 RNA 2 with A27G, U28C, A29G, A54G
B26: target 2 MT 5'PFS CUC 3'PFS AAG (mixed)
RNA 1: B4 RNA 1
RNA 2: B4 RNA 2 with A27C, A29C, U53A, A54G
B27: target 2 MT 5'PFS GCG 3'PFS UUC (mixed)
RNA 1: B4 RNA 1
RNA 2: B4 RNA 2 with A27G, U28C, A29G, A52U, A54C
B28: target 2 MT 5'PFS UCA 3'PFS AGC (mixed)
RNA 1: B4 RNA 1
RNA 2: B4 RNA 2 with A27U, U28C, U53G, A54C
B29: target 2 MT 5'PFS AUA 3'PFS AUG (mixed)
RNA 1: B4 RNA 1
RNA 2: B4 RNA 2 with A54G
B30: target 2 MT 5'PFS CUC 3'PFS AAU (mixed)
RNA 1: B4 RNA 1
RNA 2: B4 RNA 2 with A27C, A29C, U53A, A54U
B31: target 2 MT 5'PFS CAC 3'PFS UAU (mixed)
RNA 1: B4 RNA 1
RNA 2: B4 RNA 2 with A27C, U28A, A29C, A52U, U53A, A54U
B32: target 2 MT 5'PFS CUC 3'PFS AAC (mixed)
RNA 1: B4 RNA 1
RNA 2: B4 RNA 2 with A27C, A29C, U53A, A54C
B33: target 2 MT 5'PFS ACC 3'PFS CAA (mixed)
RNA 1: B4 RNA 1
RNA 2: B4 RNA 2 with U28C, A29C, A52C, U53A
B34: target 2 MT 5'PFS GGU 3'PFS ACU (mixed)
RNA 1: B4 RNA 1
RNA 2: B4 RNA 2 with A27G, U28G, A29U, U53C, A54U
B35: target 2 MT 5'PFS AGG 3'PFS CAG (mixed)
RNA 1: B4 RNA 1
RNA 2: B4 RNA 2 with U28G, A29G, A52C, U53A, A54G
B36: target 2 MT 5'PFS GGU 3'PFS ACG (mixed)
RNA 1: B4 RNA 1
RNA 2: B4 RNA 2 with A27G, U28G, A29U, U53C, A54G

Numbering of substitutions follows the chain as printed. Names and notes keep the numbering of the source.

The target in this data set is T1, EsCas13d, nuclease-dead. Kind of data set: crRNA (strand 1, pre-loaded); Mg2+; 40 mM Tris-HCl pH 7.5, 150 mM NaCl, 6 mM MgCl2, 1 mM DTT, 0.1% Tween-20, 0.2 mg/ml BSA; 25 C; 10 min per concentration, then washed. As to conditions: tags: His6-TwinStrep-SUMO cleaved; N-terminal SNAP kept (SNAP-Surface 488); label: 3' end held by stalled T7 RNA polymerase.
On to B1, for which binding was characterised by a dissociation constant (Kd) of 7.3 ± 0.7 nM. As to B2, the Kd (as a rule, the concentration at which binding is half-saturated) is around 40 nM. Molecule B3 returned a Kd of 42 ± 6 nM.

The molecule B4 came in with a Kd of 5.2 ± 0.6 nM. Next, B5: 7.6 ± 1.8 nM.

Consider B6, for which binding was characterised by a dissociation constant (Kd) of 29 ± 8 nM. The molecule B7 returned a Kd of 3.3 ± 0.7 nM. In the case of B8, binding was characterised by a dissociation constant (Kd) of 7.9 ± 1.1 nM. The figure for B9 is 6.1 ± 0.7 nM; for B10 it is 10.7 ± 2.4 nM; for B11 it is 13.4 ± 1.7 nM. The molecule B12 gave a Kd of 2.3 ± 0.6 nM. B13 displayed a Kd of 5.1 ± 0.9 nM.

B14 had a Kd of 18.9 ± 2.7 nM.

In turn, B15 gave a Kd of 14.3 ± 3.1 nM.

In turn, B16 showed a dissociation constant Kd of 6.2 ± 0.8 nM. In turn, B17 returned a Kd of 36 ± 5 nM. With B18, the dissociation constant Kd came to 23.9 ± 3.1 nM. Next, B19: around 60 nM; B20: 5.5 ± 1.7 nM. The figure for B21 is 10.1 ± 0.9 nM; for B22 it is 4.7 ± 0.8 nM; for B23 it is 10.6 ± 2.1 nM.

As to B24, the affinity, expressed as Kd, was 9.2 ± 2.1 nM. B25: binding was characterised by a dissociation constant (Kd) of 15.5 ± 2.1 nM. The molecule B26 showed a Kd of 2.32 ± 0.34 nM.

The molecule B27 showed a Kd of 21 ± 4 nM. In turn, B28 came in with an equilibrium dissociation constant (Kd) of 2.68 ± 0.29 nM.

B29 displayed a Kd of 5.6 ± 0.5 nM.

As for B30, the Kd worked out at 2.32 ± 0.27 nM.

Molecule B31 showed a dissociation constant (Kd) of 1.87 ± 0.31 nM. As to B32, the Kd came to 2.5 ± 0.5 nM. Take B33: the Kd was around 4.3 nM. B34 registered a Kd of 17.8 ± 1.7 nM. The figure for B35 is 4.8 ± 0.5 nM; for B36 it is 18.2 ± 1.8 nM.
